Laboratory results from PMC10213629 (2023).

B1: CrcA (PA1677), His-tag removed (natural protein)
chain: MPHPLTLLQISGRGYPPAPLRQSTLLIIDAQEEYRSGALRLPGLDAAAAEIGVLVQAARASGTPIVHVRHLGIQGGLFDPQGPRGQFLPELQPEAGEKVVEKRLPNAFSGTELHDLLQNHGRLDLIVCGFMTHSSVSTTVRAAKDYGYRCTLADSACATRDIPTLNGGVLSAADLQRAEIAALGDNFAAIVAQARELL
B2: Crc (catabolite repression control protein), His-tag removed (natural protein)
chain: MRIISVNVNGIQAAAERGLLSWLQAQNADVICLQDTRASAFDLDDPSFQLDGYFLYACDAELPEQGGVALYSRLQPKAVISGLGFETADRYGRYLQADFDKVSIATLLLPSGQSGDESLNQKFKFMDDFTHYLSKQRRKRREYIYCGSLYVAHQKMDVKNWRECQQMPGFLAPERAWLDEVFGNLGYADALREVSREGDQFSWWPDSEQAEMLNLGWRFDYQVLTPGLRRFVRNAKLPRQPRFSQHAPLIVDYDWQLSI

Key:
[1] = target: Strep-CrcA (Strep-PA1677; catabolite repression control protein antagonist) (Pseudomonas aeruginosa PAO1); test: SEC-MALS; Strep-CrcA; experimental mass compared with the expected mass of a dimer
[2] = target: B1; test: grating-coupled interferometry; CrcA immobilised (9.5 ng/mm^2); Crc 20 μM to 156.25 nM; ES-buffer, 25°C; equilibration curve analysis
[3] = target: B1; test: grating-coupled interferometry; CrcA immobilised by amine coupling (9.5 ng/mm^2); Crc 20 μM to 156.25 nM; ES-buffer, 25°C; heterogeneous ligand model
[4] = target: B2; test: immobilized CrcA; kd1 heterogeneous ligand
[5] = target: B2; test: immobilized CrcA; kd2 heterogeneous ligand, second site
[6] = target: B2; test: immobilized CrcA; KD2 heterogeneous ligand, second site
[7] = target: Crc (catabolite repression control protein), His-tag removed (Pseudomonas aeruginosa PAO1) (UniProt Q51380); test: grating-coupled interferometry; Crc immobilised (15 pg/mm^2); CrcA 20 μM to 156.25 nM; ES-buffer, 25°C; equilibration curve analysis
[8] = target: Crc (catabolite repression control protein), His-tag removed (Pseudomonas aeruginosa PAO1) (UniProt Q51380); test: grating-coupled interferometry; Crc immobilised by amine coupling (15 pg/mm^2); CrcA 20 μM to 156.25 nM; ES-buffer, 25°C; 1:1 kinetic fit
[9] = target: B1; test: immobilized Crc
[10] = target: T1, PAO1 Hfq protein, purified (Pseudomonas aeruginosa PAO1, UniProt Q9HUM0 1-82); test: Hfq in complex with amiE6ARN RNA; kd1 heterogeneous ligand
T1 chain: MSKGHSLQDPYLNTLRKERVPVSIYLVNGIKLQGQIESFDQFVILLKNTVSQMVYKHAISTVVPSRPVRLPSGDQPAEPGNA

[11] = target: T1, PAO1 Hfq protein, purified; test: Hfq in complex with amiE6ARN RNA; KD1 heterogeneous ligand
[12] = target: T1, PAO1 Hfq protein, purified; test: Hfq in complex with amiE6ARN RNA; kd2 heterogeneous ligand, second site

Strep-CrcA (Strep-PA1677; catabolite repression control protein antagonist) (natural protein)
stoichiometry N [1]: 2

Crc (catabolite repression control protein), His-tag removed (from UniProt Q51380 1-259) (natural protein)
Kd [2]: 7.14 µM
KD1 [3]: 8.35 µM

B1
koff [4]: 0.653 s⁻¹
koff [5]: 0.0454 s⁻¹
Kd [6]: 3.93 µM
Kd [7]: 12 µM
Kd [8]: 11 µM

B2
koff [9]: 2.45 s⁻¹
koff [10]: 0.374 s⁻¹
Kd [11]: 0.402 µM
koff [12]: 0.00786 s⁻¹
